# Assay results published in patent US20220308072A1.
# Key:
# [1] = target: Recombinant, his tagged full length human frataxin protein (Abcam ab95502) (human) (UniProt Q16595); experiment: Simoa sandwich 3-step; capture Ab-4
# [2] = target: Recombinant, his tagged full length human frataxin protein (Abcam ab95502) (human) (UniProt Q16595); experiment: Simoa sandwich 3-step; capture Ab-3
# [3] = target: Recombinant, his tagged full length human frataxin protein (Abcam ab95502) (human) (UniProt Q16595); experiment: Simoa sandwich 2-step; capture Ab-2
# [4] = target: Recombinant, his tagged full length human frataxin protein (Abcam ab95502) (human) (UniProt Q16595); experiment: Simoa sandwich 2-step; capture Ab-1
# [5] = target: Recombinant, his tagged full length human frataxin protein (Abcam ab95502) (human) (UniProt Q16595); experiment: Simoa sandwich 3-step; capture Ab-3; frataxin 100 pg/mL
# [6] = target: Recombinant, his tagged full length human frataxin protein (Abcam ab95502) (human) (UniProt Q16595); experiment: Simoa sandwich 2-step; capture Ab-2; frataxin 100 pg/mL
# [7] = target: Recombinant, his tagged full length human frataxin protein (Abcam ab95502) (human) (UniProt Q16595); experiment: Simoa sandwich 3-step; capture Ab-3; frataxin 1000 pg/mL
# [8] = target: Recombinant, his tagged full length human frataxin protein (Abcam ab95502) (human) (UniProt Q16595); experiment: Simoa sandwich 3-step; capture Ab-2; frataxin 1000 pg/mL
# [9] = target: Recombinant, his tagged full length human frataxin protein (Abcam ab95502) (human) (UniProt Q16595); experiment: Simoa sandwich 3-step; capture Ab-1; frataxin 1000 pg/mL
# [10] = target: Recombinant, his tagged full length human frataxin protein (Abcam ab95502) (human) (UniProt Q16595); experiment: Simoa sandwich 3-step; capture Ab-1; frataxin 10000 pg/mL
# [11] = target: Recombinant, his tagged full length human frataxin protein (Abcam ab95502) (human) (UniProt Q16595); experiment: Simoa sandwich; capture Ab-1; no helper beads; frataxin 6.17 pg/mL
# [12] = target: Recombinant, his tagged full length human frataxin protein (Abcam ab95502) (human) (UniProt Q16595); experiment: Simoa sandwich 2-step; capture Ab-1; 50 pM SβG; frataxin 55.6 pg/mL
# [13] = target: Recombinant, his tagged full length human frataxin protein (Abcam ab95502) (human) (UniProt Q16595); experiment: Simoa sandwich 2-step (35 min-5 min); capture Ab-1; with helper beads
# [14] = target: Recombinant, his tagged full length human frataxin protein (Abcam ab95502) (human) (UniProt Q16595); experiment: Simoa sandwich 2-step (120 min-5 min); capture Ab-1; frataxin 24.7 pg/mL
# [15] = target: Recombinant, his tagged full length human frataxin protein (Abcam ab95502) (human) (UniProt Q16595); experiment: Simoa sandwich 2-step (35 min-5 min); capture Ab-1; with helper beads; frataxin 167 pg/mL
# [16] = target: Recombinant, his tagged full length human frataxin protein (Abcam ab95502) (human) (UniProt Q16595); experiment: Simoa sandwich 2-step (120 min-5 min); capture Ab-1; Diluent 1 + 5% NCS; frataxin 12.3 pg/mL
# [17] = target: Recombinant, his tagged full length human frataxin protein (Abcam ab95502) (human) (UniProt Q16595); experiment: Simoa sandwich 2-step (120 min-5 min); capture Ab-1; Diluent 1 + 10% NCS; frataxin 0.823 pg/mL
# Sequence of UniProt Q16595 (Q16595 42-210): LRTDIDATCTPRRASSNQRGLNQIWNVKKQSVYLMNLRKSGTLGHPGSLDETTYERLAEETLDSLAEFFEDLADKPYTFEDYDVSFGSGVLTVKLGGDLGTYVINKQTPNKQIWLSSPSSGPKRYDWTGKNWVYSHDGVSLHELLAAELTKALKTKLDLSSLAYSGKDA
substance,measurement,setting,value
"Ab-3, mouse monoclonal [18A5DB1] to Frataxin (Abcam ab110328) (antibody)",LOD,[1],1.3 pg/mL
same,LOD,[2],11.9 pg/mL
same,LOD,[3],0.27 pg/mL
same,LOD,[4],0.27 pg/mL
same,Ave AEB,[5],0.0152 AEB
same,S/B,[5],3.21
same,Ave AEB,[6],7.14 AEB
same,S/B,[6],88.6
same,Ave AEB,[7],0.0854 AEB
same,S/B,[7],18.1
same,Ave AEB,[8],20.7 AEB
same,S/B,[8],330
same,Ave AEB,[9],19.6 AEB
same,S/B,[9],333
same,Ave AEB,[10],28.5 AEB
same,S/B,[10],576
same,AEB Rep1,[11],0.118 AEB
same,AEB Rep2,[11],0.141 AEB
same,Ave AEB,[11],0.13 AEB
same,S/B,[11],5.74
same,Ave AEB,[12],1.65 AEB
same,S/B,[12],90
same,Estimated LLOQ,[13],0.321 pg/mL
same,LOD,[13],0.117 pg/mL
same,AEB rep1,[14],0.129 AEB
same,AEB rep2,[14],0.117 AEB
same,AEB rep3,[14],0.142 AEB
same,Ave AEB,[14],0.129 AEB
same,S/B,[14],15.7
same,AEB Rep1,[15],9.19 AEB
same,AEB Rep2,[15],9.19 AEB
same,Ave AEB,[15],9.19 AEB
same,S/B,[15],377
same,Ave AEB,[16],0.123 AEB
same,S/B,[16],11.2
same,Ave AEB,[17],0.0296 AEB
same,S/B,[17],1.63
